Measurements published in patent US20100104550A1 (priority 2006, published 2010).
Entries after “also recorded” stand apart in the source; their conditions may differ.

Key:
caspase-3/7 = assay type: cell-based, human
α-fodrin = assay type: cell-based, human
EGFR = EGFR (Homo sapiens, UniProt P00533); assay type: cell-based, rat
MDA231luc-Dox cells = assay type: cell-based, human
GRP78/BiP = GRP78/BiP (Homo sapiens, UniProt P11021); assay type: cell-based
MDA231luc cells [1] = assay type: cell-based, human
MDA231luc cells [2] = assay type: cell-based, human; remark: listed apart in the source
F98/EGFR-Dox cells = assay type: cell-based, rat

Sequence of GRP78/BiP (P11021 19-654): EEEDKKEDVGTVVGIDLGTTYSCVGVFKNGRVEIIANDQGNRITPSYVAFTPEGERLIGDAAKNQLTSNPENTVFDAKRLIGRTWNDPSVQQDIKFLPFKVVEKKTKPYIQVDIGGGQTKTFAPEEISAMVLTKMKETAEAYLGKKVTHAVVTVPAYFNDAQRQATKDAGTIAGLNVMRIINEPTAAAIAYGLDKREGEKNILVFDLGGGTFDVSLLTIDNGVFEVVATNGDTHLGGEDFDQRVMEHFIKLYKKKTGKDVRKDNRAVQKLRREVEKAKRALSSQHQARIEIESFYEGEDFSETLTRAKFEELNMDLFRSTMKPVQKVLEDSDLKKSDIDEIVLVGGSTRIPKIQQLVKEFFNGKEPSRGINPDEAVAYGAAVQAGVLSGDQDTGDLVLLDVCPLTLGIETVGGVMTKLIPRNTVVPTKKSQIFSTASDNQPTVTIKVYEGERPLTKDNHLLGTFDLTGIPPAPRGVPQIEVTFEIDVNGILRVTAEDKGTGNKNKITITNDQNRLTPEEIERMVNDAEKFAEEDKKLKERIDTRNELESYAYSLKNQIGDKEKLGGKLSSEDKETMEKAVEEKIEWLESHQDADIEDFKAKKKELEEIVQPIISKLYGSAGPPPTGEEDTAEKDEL

B1: EGF-SubA: fusion protein (SEQ ID NO:13): Cys-tag, linker, human EGF, linker, 326 amino acid SubA fragment (protein)
chain: MKESCAKKFQRQHMDSGGGGSGGGGSGGGGSMGNSDSECPLSHDGYCLHDGVCMYIEALDKYACNCVVGYIGERCQYRDLKWWELRSMADIGSEKPWYFDAIGLTETTMSLTDKNTPVVVSVVDSGVAFIGGLSDSEFAKFSFTQDGSPFPVKKSEALYIHGTAMASLIASRYGIYGVYPHALISSRRVIPDGVQDSWIRAIESIMSNVFLAPGEEKIINISGGQKGVASASVWTELLSRMGRNNDRLIVAAVGNDGADIRKLSAQQRIWPAAYHPVSSVNKKQDPVIRVAALAQYRKGETPVLHGGGITGSRFGNNWVDIAAPGQNITFLRPDAKTGTGSGTSEATAIVSGVLAAMTSCNPRATATELKRTLLESADKYPSLVDKVTEGRVLNAEKAISMFCKKNYIPVRQGRMSEEL
modifications: fusion protein of subA and human EGF with cys tag consisting of SEQ ID NOS 7 to 12
caspase-3/7
  total DEVD- and specific caspase-3/7 activity: significant increase
α-fodrin
  accumulation of 150-kDa and 120-kDa fragments of α-fodrin: Greater accumulation
EGFR
  EGFR tyrosine autophosphorylation: induced EGFR tyrosine autophosphorylation in the same concentration range
MDA231luc-Dox cells
  sensitivity of MDA231luc-Dox cells relative to parental MDA231luc: Enhanced sensitivity; also recorded: significantly more sensitive
GRP78/BiP
  cleavage of BiP in combination treatment: effective cleavage of BiP
  cleavage of intracellular GRP78/BiP: appearance of a 28-kDa fragment; also recorded: selectively cleaves intracellular BiP
MDA231luc cells [1]
  effect of excess EGF on EGF-SubA toxicity: inhibited by excess of EGF; also recorded: excess of free EGF rescue cells
  fold lower sensitivity of MDA-231luc cells vs F98/EGFR cells: 10 fold
MDA231luc cells [2]
  effect on bortezomib-induced cell growth inhibition: enhances cell growth inhibition
  effect on thapsigargin-induced cell growth inhibition: enhances cell growth inhibition
F98/EGFR-Dox cells
  sensitivity of F98/EGFR-Dox cells relative to parental F98/EGFR: Enhanced sensitivity; also recorded: significantly more sensitive
Parental F98 cells
  IC50: ~2.5 nM
